Drawing on paper PMC8386928 (Science Advances, 2021), this text covers Kd for one molecule.

Broadly, the Kd is a measure of binding affinity in units of concentration.

This experiment deals with biotinylated PepT2 (C-terminal Avi tag) (Rattus norvegicus, UniProt Q63424, biotin (on the Avi tag, by BirA)). Kind of experiment: BLI. A general note: In BLI a coated tip is dipped into the sample, and binding shifts an interference pattern.
Sequence of biotinylated PepT2 (C-terminal Avi tag) (Q63424 whole entry): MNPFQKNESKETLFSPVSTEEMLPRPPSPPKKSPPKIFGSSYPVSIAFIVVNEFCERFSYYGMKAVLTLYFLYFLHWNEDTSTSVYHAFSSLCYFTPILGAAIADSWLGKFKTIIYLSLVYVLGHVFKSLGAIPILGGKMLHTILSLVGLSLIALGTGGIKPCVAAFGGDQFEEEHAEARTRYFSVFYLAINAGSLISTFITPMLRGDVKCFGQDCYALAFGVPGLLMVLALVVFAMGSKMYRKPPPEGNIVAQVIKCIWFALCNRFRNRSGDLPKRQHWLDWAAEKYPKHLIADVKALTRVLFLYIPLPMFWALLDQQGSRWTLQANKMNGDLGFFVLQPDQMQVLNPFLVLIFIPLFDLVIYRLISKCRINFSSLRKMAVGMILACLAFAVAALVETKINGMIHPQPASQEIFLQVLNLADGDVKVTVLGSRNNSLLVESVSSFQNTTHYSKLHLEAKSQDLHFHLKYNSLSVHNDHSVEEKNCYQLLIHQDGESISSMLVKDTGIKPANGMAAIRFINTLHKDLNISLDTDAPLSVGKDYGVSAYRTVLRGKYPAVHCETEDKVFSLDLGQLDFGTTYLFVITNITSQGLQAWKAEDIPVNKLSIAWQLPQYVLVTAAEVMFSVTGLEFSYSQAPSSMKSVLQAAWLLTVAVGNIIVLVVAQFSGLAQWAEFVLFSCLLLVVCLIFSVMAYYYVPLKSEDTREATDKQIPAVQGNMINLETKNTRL

B1: nanobody D8 (VHH)
VHH: QVQLVESGGGLVQPGGSLRLLCVASGRPFNDYDMGWFRQAPGKEREFVASISWSGRVTDYSDSMKGRCTVSRDNAKGTMFLQMSNLVPRDTAVYYCAAARRRWTFKATNTEEFYETWGQGTQVTVSS
In turn, B1 came in with a Kd of around 25 nM.
